{"source": "paper PMC8865267", "about": "(mAbs, 2022)", "molecules": {"B1": {"name": "Ipi.105 IgG1, non-fucosylated (antibody, V domains shown)", "VH": "QVQLVESGGGVVQPGRSLRLSCAASGFTFSHYTMHWVRQAPGKGLEWVTFISYDGHNKYYADSVKGRFTISRDNSKNTLYLQMNSLRAEDTAIYYCARTGWLGPFDYWGQGTLVTVSS", "VL": "EIVLTQSPGTLSLSPGERATLSCRASQEVGESELAWYQQKPGQAPRLLIYGAFSRATGIPDRFSGSGSGTDFTLTISRLEPEDFAVYYCQQYGSSPWTFGQGTKVEIK"}, "B2": {"name": "Ipi.105 Fab (Fab, V domains shown)", "VH": "B1 VH", "VL": "B1 VL"}, "B3": {"name": "Ipi.106 Fab (Fab, V domains shown)", "VH": "B1 VH with T99H", "VL": "B1 VL"}, "B4": {"name": "Ipi.106 IgG1, non-fucosylated (antibody, V domains shown)", "VH": "B1 VH with T99H", "VL": "B1 VL"}}, "key": {"[1]": {"target": "human CTLA-4 with C-terminal Myc, poly-histidine and BirA biotinylation tag (Homo sapiens (Human).) (UniProt P16410)", "assay": "SPR"}, "[2]": {"target": "CTLA-4 of activated primary human CD4+CD25+ T cells (human (endogenous in primary CD4+CD25+ …, UniProt P16410))", "sequence (P16410 36-223)": "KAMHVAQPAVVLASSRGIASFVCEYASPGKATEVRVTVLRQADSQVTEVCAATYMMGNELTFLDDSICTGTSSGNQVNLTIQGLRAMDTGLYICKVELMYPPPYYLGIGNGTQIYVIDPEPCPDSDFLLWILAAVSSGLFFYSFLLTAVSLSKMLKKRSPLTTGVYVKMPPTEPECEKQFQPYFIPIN", "assay": "flow cytometry on cells"}, "[3]": {"target": "CTLA-4 on BW cells expressing ~2,000 CTLA-4 receptor copies (Homo sapiens (Human)., UniProt P16410)", "sequence (P16410 36-223)": "as above", "assay": "flow cytometry on cells"}, "[4]": {"target": "T1, human CTLA-4 with C-terminal poly-histidine tag (crystallography construct) (human, UniProt P16410, glycans trimmed with EndoH)", "T1 sequence (P16410 36-161)": "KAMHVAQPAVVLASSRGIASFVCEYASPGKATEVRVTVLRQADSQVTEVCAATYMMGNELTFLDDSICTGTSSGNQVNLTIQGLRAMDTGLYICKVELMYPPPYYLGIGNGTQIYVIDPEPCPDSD", "assay": "crystal structure"}, "[5]": {"target": "T1, human CTLA-4 with C-terminal …", "assay": "crystal structure", "remark": "listed apart in the source"}}, "note": "Changes are numbered by the printed parent chain. Like-named read-outs stand apart in the source and are kept apart here.", "data": [{"molecule": "ipilimumab Fab", "values": [{"measurement": "Kd", "setting": "[1]", "result": 40, "unit": "nM"}]}, {"molecule": "B1", "values": [{"measurement": "binding result", "setting": "[2]", "result": "binds"}, {"measurement": "binding result", "setting": "[3]", "result": "binds"}]}, {"molecule": "B2", "values": [{"measurement": "binding result", "setting": "[4]", "result": "binds"}]}, {"molecule": "B3", "values": [{"measurement": "binding result", "setting": "[5]", "result": "binds"}]}, {"molecule": "B4", "values": [{"measurement": "binding result", "setting": "[2]", "result": "binds"}, {"measurement": "binding result", "setting": "[3]", "result": "binds"}]}]}
